Assay [1] deals with T1, recombinant c-Met extracellular domain (human, UniProt P08581 16-932).
T1 construct: Construct used for SPR is not described further (may be the Fc chimera, as the protocol captures on anti-human Fc)
Put plainly: SPR kinetic analysis as in Example 2.

Assay [2] has as its target T2, human c-Met on cells (NCI-H441, NCI-H292, U87-MG) (human, UniProt P08581 25-1390). Put plainly: cell-based or functional assay.
In assay [3] the target is T3, Recombinant human c-Met Fc chimera (human, UniProt P08581 16-932).
T3 construct: whole c-Met entry named; also called c-Met-Fc fusion protein
Put plainly: competition with biotinylated HGF on plate-coated c-Met-Fc.

In assay [4] the target is T2, human c-Met on cells (NCI-H441, …). Put plainly: NCI-H441 cell binding, anti-His fluorescence. The procedure:
Purified FN3 domains (50 μL/well; 0 to 1000 nM) were added to the cells for 1 hour at 4° C. in duplicate plates. Supernatant was removed and cells were washed three times with FACS stain buffer (150 μL/well, BD Biosciences, cat #554657). Cells were incubated with biotinylated-anti HIS antibody (diluted 1:160 in FACS stain buffer, 50 μL/well, R&D Systems, cat # BAM050) for 30 minutes at 4° C. Cells were washed three times with FACS stain buffer (150 μL/well), after which wells were incubated with anti mouse IgG1-Alexa 488 conjugated antibody (diluted 1:80 in FACS stain buffer, 50 μL/well, Life Technologies, cat # A21121) for 30 minutes at 4° C. Cells were washed three times with FACS stain buffer (150 μL/well) and left in FACS stain buffer (50 μL/well). Total fluorescence was determined using an Acumen eX3 reader. Data were plotted as raw fluorescence signal against the logarithm of the FN3 domain molar concentration and fitted to a sigmoidal dose-response curve with variable slope using GraphPad Prism 4 (GraphPad Software) to calculate EC₅₀ values.

For assay [5], the target named is T4, EGFR (form used in the assay not stated) (human, UniProt P00533 25-645, limits assumed). Put plainly: ELISA, NEM conjugate, 10 nM.
Assay [6] concerns the target T4, EGFR (form used in the assay not stated). Put plainly: ELISA, NEM conjugate, 100 nM.
Assay [7] has the same target. Put plainly: ELISA, NEM conjugate, 500 nM.

B1: P114AR7P95-D3 (designed binder, not shown: small tags and cut ends)
chain: LPAPKNLVVSRVTEDSARLSWTAPDAAFDSFWIRYFEFLGSGEAIVLTVPGSERSYDLTGLKPGTEYVVNIMGVKGGSISYPLSAIFTT
Turning to B1, in assay [1], the Kd is 0.3 nM. In addition, the “pMet inhibition in H441 cells IC50” value in assay [2] was found to be 4.6 nM. Moreover, in assay [3], the IC50 stood at 0.2 nM.

B2: P114AR7P93-D11 (designed binder, not shown: small tags and cut ends)
chain: LPAPKNLVVSRVTEDSARLSWTAPDAAFDSFWIRYFEFLGSGEAIVLTVPGSERSYDLTGLKPGTEYVVGINGVKGGYISYPLSAIFTT
Turning to B2, in assay [2], the “Inhibition of proliferation of U87-MG cells IC50” value (shortened to “Inhibition … of U87-MG cells IC50”) was 14.4 nM and the “pMet inhibition in H441 cells IC50” value turned out to be 16 nM. The molecule further yielded an EC50 in assay [4] of 2.3 nM.

B3: P114AR7P95-D4 (designed binder, not shown: small tags and cut ends)
chain: LPAPKNLVVSRVTEDSARLSWTAPDAAFDSFWIRYFEFLGSGEAIVLTVPGSERSYDLTGLKPGTEYVVQILGVKGGYISIPLSAIFTT
With B3, in assay [1], the Kd amounted to 0.4 nM. For the same molecule, in assay [2], the “Inhibition … of U87-MG cells IC50” value came out at 19.4 nM and the “pMet inhibition in H441 cells IC50” value is 19.5 nM. It took 1.4 nM to reach a half-maximal effect in assay [4] (EC50).

B4: P114AR7P95-B9 (designed binder, not shown: small tags and cut ends)
chain: LPAPKNLVVSRVTEDSARLSWTAPDAAFDSFWIRYFEFLGSGEAIVLTVPGSERSYDLTGLKPGTEYVVQILGVKGGSISVPLSAIFTT
With B4, in assay [2], the “Inhibition … of U87-MG cells IC50” value is 17.4 nM and the “pMet inhibition in H441 cells IC50” value came out at 9.8 nM. The IC50 in assay [3] was 0.3 nM.

B5: P114AR7P95-E3 (designed binder, not shown: small tags and cut ends)
chain: LPAPKNLVVSRVTEDSARLSWTAPDAAFDSFWIRYFEFLGSGEAIVLTVPGSERSYDLTGLKPGTEYVVQIMGVKGGTVSPPLSAIFTT
As to B5, in assay [2], the “Inhibition … of U87-MG cells IC50” value was determined as 209 nM and the “pMet inhibition in H441 cells IC50” value worked out at 205 nM. The same molecule registered an EC50 in assay [4] of 3.2 nM.

B6: P114AR7P95-H8 (designed binder, not shown: small tags and cut ends)
chain: LPAPKNLVVSRVTEDSARLSWTAPDAAFDSFWIRYFEFVSKGEAIVLTVPGSERSYDLTGLKPGTEYVVNIMGVKGGSISPPLSAIFTT
B6: the Kd in assay [1] stood at 3.7 nM. For the same molecule, in assay [2], the “Inhibition … of U87-MG cells IC50” value came out at 281 nM and the “pMet inhibition in H441 cells IC50” value is 210 nM. This molecule also displayed an EC50 in assay [4] of 4.1 nM.

B7: P114AR7P95-G7 (designed binder, not shown: small tags and cut ends)
chain: LPAPKNLVVSRVTEDSARLSWTAPDAAFDSFWIRYFELLSTGEAIVLTVPGSERSYDLTGLKPGTEYVVNIMGVKGGSISPPLSAIFTT
On to B7, for which the Kd in assay [1] turned out to be 20 nM. In addition, in assay [2], the “Inhibition … of U87-MG cells IC50” value turned out to be 692 nM and the “pMet inhibition in H441 cells IC50” value turned out to be 659 nM. In assay [4], this molecule gave an EC50 of 11.3 nM.

B8: P114AR7P92-H5 (designed binder, not shown: small tags and cut ends)
chain: LPAPKNLVVSRVTEDSARLSWTAPDAAFDSFWIRYLEFLLGGEAIVLTVPGSERSYDLTGLKPGTEYVVQIMGVKGGTVSPPLSAIFTT
As to B8, the Kd in assay [1] worked out at 11.6 nM. Further, in assay [2], the “Inhibition … of U87-MG cells IC50” value worked out at 672 nM and the “pMet inhibition in H441 cells IC50” value was 766 nM. The same molecule came in with an EC50 in assay [4] of 22 nM.

B9: P54AR4-83v2 Y72C, NEM conjugate (designed binder, not shown: small tags and cut ends)
chain: LPAPKNLVVSEVTEDSARLSWDDPWAFYESFLIQYQESEKVGEAIVLTVPGSERSYDLTGLKPGTEYTVSICGVHNVYKDTNMRGLPLSAIFTT
modifications: N-ethyl maleimide (NEM) on Cys 72
As for B9, the entries for the “binding relative to P54AR4-83v2 parent” value in assay [5], in assay [6] and in assay [7] were 0.93 ratio, 1 ratio and 0.93 ratio, respectively.

B10: P54AR4-83v2 Y78C, NEM conjugate (designed binder, not shown: small tags and cut ends)
chain: LPAPKNLVVSEVTEDSARLSWDDPWAFYESFLIQYQESEKVGEAIVLTVPGSERSYDLTGLKPGTEYTVSIYGVHNVCKDTNMRGLPLSAIFTT
modifications: N-ethyl maleimide (NEM) on Cys 78
Turning to B10, the “binding relative to P54AR4-83v2 parent” value in assay [5] was determined as 0.31 ratio; in assay [6] it was 0.63 ratio; in assay [7] it was 0.68 ratio.

(Values after patent publication US20210301025A1 (published 2021).)
